Data: US20120027763A1 (TRANSGENE BIOTEK, published 2012)

Molecular target: T1, TNFRSF17-epag
T1 construct: also called TNFRS17-epag
T1 peptide: KSRTGDEIILPRGLC
Assay: screening of ascites mAbs by specific Ag binding activity, after immunization with SEQ ID NO:2

binding result: binds
B1: TBL-CLN1 (antibody, V domains shown)
VH: EVKLVESGGGLVKPGGSLKLSCAASGITFSTYAMSWVRQTPEKRLEWVASITTGGNVYFPDSVKGRFTISRDNARNILYLQMSSLRSEDTAMYYCAGGITATRGTFAYWGQGTTLTVSS
VL: DVLMTQTPLSLPVSLGDQASISCRSSQSIGHSNGITYLEWYLQKPGQSPKLLIYKVSNRFSGVPDRFSGSGSGTDFTLKISRVEAEDLGVYYCFEGSHVPLTFGAGTKLELKR
notes: also called TBL-CLNI
